According to patent publication US20130324465A1 (Sanofi, published 2013):
Several values for one entry are separate records, joined by “and”; a condition that tells them apart may be missing. Equal values may be shown once.

T1: VEGF165 (UniProt P15692 27-191)
T1 chain: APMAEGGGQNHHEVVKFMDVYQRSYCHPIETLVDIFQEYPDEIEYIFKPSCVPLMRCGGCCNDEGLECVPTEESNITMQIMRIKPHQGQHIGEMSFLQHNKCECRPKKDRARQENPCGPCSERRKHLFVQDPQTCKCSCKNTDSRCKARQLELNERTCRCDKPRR

B1: sFLT01 (D2-9Gly-Fc) (Fc fusion)
chain: RPFVEMYSEIPEIIHMTEGRELVIPCRVTSPNITVTLKKFPLDTLIPDGKRIIWDSRKGFIISNATYKEIGLLTCEATVNGHLYKTNYLTHRQTGGGGGGGGG
B2: Four-arm D2 tetramer linked with 4-arm PEG of 20 kDa (receptor)
chain: RPFVEMYSEIPEIIHMTEGRELVIPCRVTSPNITVTLKKFPLDTLIPDGKRIIWDSRKGFIISNATYKEIGLLTCEATVNGHLYKTNYLTHRQT
modifications: free cysteine coupled to a 4-arm 20 kDa maleimide PEG
B3: Four-arm D2 tetramer linked with 4-arm PEG of 10 kDa (receptor)
chain: RPFVEMYSEIPEIIHMTEGRELVIPCRVTSPNITVTLKKFPLDTLIPDGKRIIWDSRKGFIISNATYKEIGLLTCEATVNGHLYKTNYLTHRQT
modifications: free cysteine coupled to a 4-arm 10 kDa PEG
B4: D2-Cys protein (D2 domain of FLT-1 with HPC4 tag and C-terminal cysteine), monomer (receptor)
chain: RPFVEMYSEIPEIIHMTEGRELVIPCRVTSPNITVTLKKFPLDTLIPDGKRIIWDSRKGFIISNATYKEIGLLTCEATVNGHLYKTNYLTHRQT
notes: Expressed in HEK293-EBNA cells and purified on an HPC4 antibody column; glycosylated; also called D2 monomer; TCEP-reduced D2 monomer
B5: PEG-linked D2 dimer, 0.6 kDa linker (receptor)
chain: RPFVEMYSEIPEIIHMTEGRELVIPCRVTSPNITVTLKKFPLDTLIPDGKRIIWDSRKGFIISNATYKEIGLLTCEATVNGHLYKTNYLTHRQT
modifications: free cysteine of partially-reduced monomer coupled to a homobifunctional PEG linker of 0.6 kDa (BM(PEG)3)
B6: disulfide-linked D2 dimer (D2 domain with HPC4 tag and C-terminal cysteine) (receptor)
chain: RPFVEMYSEIPEIIHMTEGRELVIPCRVTSPNITVTLKKFPLDTLIPDGKRIIWDSRKGFIISNATYKEIGLLTCEATVNGHLYKTNYLTHRQT
modifications: disulfide-linked dimer, presumably via the C-terminal cysteine
notes: Two preparations are kept under one id; One formed spontaneously and was SEC-purified from PEGylation reactions or conditioned medium, without copper oxidation ('D2 HPC4 eluate Pk B', 'D2 Pk B'); also called Cu-oxidized dimer; D2 HPC4 eluate Pk B
B7: PEG-linked D2 dimer, 2 kDa linker (receptor)
chain: RPFVEMYSEIPEIIHMTEGRELVIPCRVTSPNITVTLKKFPLDTLIPDGKRIIWDSRKGFIISNATYKEIGLLTCEATVNGHLYKTNYLTHRQT
modifications: free cysteine of partially-reduced monomer coupled to a homobifunctional PEG linker of 2 kDa
B8: PEG-linked D2 dimer, 5 kDa linker (receptor)
chain: RPFVEMYSEIPEIIHMTEGRELVIPCRVTSPNITVTLKKFPLDTLIPDGKRIIWDSRKGFIISNATYKEIGLLTCEATVNGHLYKTNYLTHRQT
modifications: free cysteine of partially-reduced monomer coupled to a homobifunctional PEG linker of 5 kDa

Legend:
VEGF165 [1] = target: VEGF165 (UniProt P15692); experiment: competitive VEGF ELISA; panel B
VEGF165 [2] = target: VEGF165 (UniProt P15692); experiment: VEGF binding assay
VEGF165 [3] = target: VEGF165 (UniProt P15692); experiment: VEGF binding assay; after 56 days incubation at 45 C
VEGF165 [4] = target: VEGF165 (UniProt P15692); experiment: competitive VEGF ELISA; panel A
VEGF165 [5] = target: T1, VEGF165; experiment: competitive VEGF ELISA
VEGF165 [6] = target: T1, VEGF165; experiment: VEGF binding assay
VEGF165 [7] = target: T1, VEGF165; experiment: competitive VEGF ELISA; panel A
VEGF165 [8] = target: T1, VEGF165; experiment: competitive VEGF ELISA; panel B
VEGF165 [9] = target: T1, VEGF165; experiment: Biacore; 4000RU VEGF
VEGF165 [10] = target: T1, VEGF165; experiment: Biacore; 100RU VEGF
VEGF165 [11] = target: T1, VEGF165; experiment: Biacore; 500RU VEGF
VEGF165 [12] = target: T2, VEGF165 (UniProt P15692-4 27-191); experiment: Biacore
T2 construct: Both are treated as one molecule; also called recombinant VEGF (R&D Systems); immobilized VEGF

VEGF165 [13] = target: T2, VEGF165; experiment: competitive VEGF ELISA
Experimental: Dimer was prepared using 100 uM CuCl₂ and the products assayed for VEGF binding activity by competitive VEGF ELISA. […] This value was similar to that obtained for dimers obtained without copper oxidation (FIG. 5). This molecule lacks the hinge region and Fc domain of sFLT01 and represents a minimal high affinity VEGF binding entity. Its low MW may provide advantages in localized delivery, including higher diffusion through tissue, more rapid systemic clearance thus reducing potential side effects of VEGF antagonism, and greater stability upon formulation into slow-release depots.
Dimers wherein two D2 domains of sFLT are coupled via PEG linkers were prepared by reaction of the partially-reduced monomer with homobifunctional PEGs. Products were isolated by SEC (FIG. 5) and analyzed for VEGF binding affinity using competitive ELISA (FIG. 9). VEGF165 binding of three SEC purified D2 domain constructs including dimers prepared with 0.6, 2 and 5 kDa linkers and as well as the 10 and 20 kDa 4-arm PEG conjugates as described in Example 1 was determined. The assay was performed by binding to 10 pM recombinant VEGF (R&D Systems) in phosphate-buffered saline. The sample concentrations ranged from 0.0763 to 156 pM. Following binding, the free VEGF concentration was determined by a VEGF-specific ELISA (R&D Systems). […]

VEGF165 [14] = target: T2, VEGF165; experiment: competitive VEGF ELISA: binding to 10 pM recombinant VEGF, free VEGF measured by ELISA
Experimental: (§1) Dimers wherein two D2 domains of sFLT are coupled via PEG linkers were prepared by reaction of the partially-reduced monomer with homobifunctional PEGs. Products were isolated by SEC (FIG. 5) and analyzed for VEGF binding affinity using competitive ELISA (FIG. 9). VEGF165 binding of three SEC purified D2 domain constructs including dimers prepared with 0.6, 2 and 5 kDa linkers and as well as the 10 and 20 kDa 4-arm PEG conjugates as described in Example 1 was determined. The assay was performed by binding to 10 pM recombinant VEGF (R&D Systems) in phosphate-buffered saline. The sample concentrations ranged from 0.0763 to 156 pM. Following binding, the free VEGF concentration was determined by a VEGF-specific ELISA (R&D Systems). […] D2 monomer purified directly from medium (“D2 HPC4 eluate Pk C”) had no detectable binding to VEGF165.

VEGF165 [15] = target: T2, VEGF165; experiment: competitive VEGF ELISA (VEGF binding assay)
Experimental: as §1

Row | Molecule | EC50 (VEGF165 [5]) | EC50 (VEGF165 [7]) | EC50 (VEGF165 [8]) | Kd (VEGF165 [9]) | Kd (VEGF165 [10]) | Kd (VEGF165 [11]) | further results
1 | disulfide-linked D2 dimer (D2 domain with HPC4 tag and C-terminal cysteine) (from UniProt P17948 133-226) | – | – | – | – | – | – | EC50 (VEGF165 [1]): 0.0119 nM; EC50 (VEGF165 [2]): 0.0048 nM; EC50 (VEGF165 [3]): 0.0109 nM; EC50 (VEGF165 [4]): 0.00708 nM
2 | D2-Cys protein (D2 domain of FLT-1 with HPC4 tag and C-terminal cysteine), monomer (from UniProt P17948 133-226) | – | – | – | – | – | – | EC50 (VEGF165 [1]): 0.172 nM and 0.254 nM
3 | B1 | 3.7 nM | 0.0047 nM | 0.00472 nM | 0.8 nM | 2.5 nM | 0.61 nM | EC50 (VEGF165 [6]): 0.0054 nM
4 | B2 | – | 0.00478 nM | – | 0.17 nM | 1.5 nM | 0.1 nM | –
5 | B3 | – | 0.00374 nM | – | 0.35 nM | 0.84 nM | 0.14 nM | –
6 | B4 | 131 nM | – | – | 28.9 nM | 9.61 nM | 11.5 nM | Kd (VEGF165 [12]): ~10 nM; fold higher EC50 than sFLT01 (VEGF165 [13]): ~35 fold; percent of the binding affinity of sFLT01 (VEGF165 [14]): < 3%
7 | B5 | – | – | 0.00471 nM | – | – | – | –
8 | B6 | 8.3 nM | – | – | 11.4 nM | 1.69 nM | 0.53 nM | EC50 (VEGF165 [15]): 0.008 to 0.01 nM; fold higher EC50 than sFLT01 (VEGF165 [15]): 2 fold; fold higher EC50 than sFLT01 (VEGF165 [13]): 2.2 fold
9 | B7 | – | 0.00579 nM | – | – | – | – | –
10 | B8 | – | – | 0.00675 nM | – | – | – | –
